This note sets out measurements from PMC4925323 (Molecular microbiology, 2016).

This series deals with the molecule itself. Nature of the series: crystal structure.

B1: Listeria monocytogenes PrsA1 (residues 22-294), wild type (domain or fragment)
chain: CGSSAVIKTDAGSVTQDELYEAMKTTYGNEVVQQLTFKKILEDKYTVTEKEVNAEYKKYEEQYGDSFESTLSSNNLTKTSFKENLEYNLLVQKATEANMDVSESKLKAYYKTWEPDITVRHILVDDEATAKEIQTKLKNGEKFTDLAKEYSTDTATSTNGGLLDPFGPGEMDETFEKAAYALENKDDVSGIVKSTYGYHLIQLVKKTEKGTYAKEKANVKAAYIKSQLTSENMTAALKKELKAANIDIKDSDLKDAFADYTSTSSTSSTTTSN
Consider B1, for which the “stoichiometry N” value was determined as 2.
